We go through 47 molecules from patent publication US20170298096A1 (CANIMGUIDE THERAPEUTICS, published 2017).

Sequences and labels used below:
T1: His-tagged P3028 peptide (PGE73) (human)
T1 construct: albumin-derived peptide, in solution at 0.5 ug/mL; not shown: His-tag
T1 peptide: VFDEFKPLVEEPQNLIK

B1: SEQ ID NO: 280 TKLDTFFVKLSLFTER (peptide)
peptide: TKLDTFFVKLSLFTER
B2: SEQ ID NO: 299 KKLETFFVKLSLFTER (peptide)
peptide: KKLETFFVKLSLFTER
B3: SEQ ID NO: 317 KKLDTPFVKLSLFTER (peptide)
peptide: KKLDTPFVKLSLFTER
B4: SEQ ID NO: 312 KKLDYFFVKLSLFTER (peptide)
peptide: KKLDYFFVKLSLFTER
B5: SEQ ID NO: 324 KKLDTFTVKLSLFTER (peptide)
peptide: KKLDTFTVKLSLFTER
B6: SEQ ID NO: 308 KKLDQFFVKLSLFTER (peptide)
peptide: KKLDQFFVKLSLFTER
B7: SEQ ID NO: 323 KKLDTFSVKLSLFTER (peptide)
peptide: KKLDTFSVKLSLFTER
B8: SEQ ID NO: 303 KKLYTFFVKLSLFTER (peptide)
peptide: KKLYTFFVKLSLFTER
B9: SEQ ID NO: 283 KKCDTFFVKLSLFTER (peptide)
peptide: KKCDTFFVKLSLFTER
B10: SEQ ID NO: 297 KKVDTFFVKLSLFTER (peptide)
peptide: KKVDTFFVKLSLFTER
B11: SEQ ID NO: 310 KKLDSFFVKLSLFTER (peptide)
peptide: KKLDSFFVKLSLFTER
B12: SEQ ID NO: 321 KKLDTFMVKLSLFTER (peptide)
peptide: KKLDTFMVKLSLFTER
B13: SEQ ID NO: 284 KKDDTFFVKLSLFTER (peptide)
peptide: KKDDTFFVKLSLFTER
B14: SEQ ID NO: 285 KKEDTFFVKLSLFTER (peptide)
peptide: KKEDTFFVKLSLFTER
B15: SEQ ID NO: 290 KKKDTFFVKLSLFTER (peptide)
peptide: KKKDTFFVKLSLFTER
B16: SEQ ID NO: 298 KKLATFFVKLSLFTER (peptide)
peptide: KKLATFFVKLSLFTER
B17: SEQ ID NO: 309 KKLDRFFVKLSLFTER (peptide)
peptide: KKLDRFFVKLSLFTER
B18: SEQ ID NO: 318 KKLDTTFVKLSLFTER (peptide)
peptide: KKLDTTFVKLSLFTER
B19: SEQ ID NO: 304 KKLDCFFVKLSLFTER (peptide)
peptide: KKLDCFFVKLSLFTER
B20: SEQ ID NO: 282 KKADTFFVKLSLFTER (peptide)
peptide: KKADTFFVKLSLFTER
B21: SEQ ID NO: 305 KKLDMFFVKLSLFTER (peptide)
peptide: KKLDMFFVKLSLFTER
B22: SEQ ID NO: 296 KKTDTFFVKLSLFTER (peptide)
peptide: KKTDTFFVKLSLFTER
B23: SEQ ID NO: 315 KKLDTMFVKLSLFTER (peptide)
peptide: KKLDTMFVKLSLFTER
B24: SEQ ID NO: 286 KKFDTFFVKLSLFTER (peptide)
peptide: KKFDTFFVKLSLFTER
B25: SEQ ID NO: 291 KKMDTFFVKLSLFTER (peptide)
peptide: KKMDTFFVKLSLFTER
B26: SEQ ID NO: 313 KKLDTAFVKLSLFTER (peptide)
peptide: KKLDTAFVKLSLFTER
B27: SEQ ID NO: 319 KKLDTVFVKLSLFTER (peptide)
peptide: KKLDTVFVKLSLFTER
B28: SEQ ID NO: 289 KKIDTFFVKLSLFTER (peptide)
peptide: KKIDTFFVKLSLFTER
B29: SEQ ID NO: 294 KKRDTFFVKLSLFTER (peptide)
peptide: KKRDTFFVKLSLFTER
B30: SEQ ID NO: 287 KKGDTFFVKLSLFTER (peptide)
peptide: KKGDTFFVKLSLFTER
B31: SEQ ID NO: 288 KKHDTFFVKLSLFTER (peptide)
peptide: KKHDTFFVKLSLFTER
B32: SEQ ID NO: 293 KKQDTFFVKLSLFTER (peptide)
peptide: KKQDTFFVKLSLFTER
B33: SEQ ID NO: 311 KKLDWFFVKLSLFTER (peptide)
peptide: KKLDWFFVKLSLFTER
B34: SEQ ID NO: 300 KKLITFFVKLSLFTER (peptide)
peptide: KKLITFFVKLSLFTER
B35: SEQ ID NO: 326 KKLDTFFFKLSLFTER (peptide)
peptide: KKLDTFFFKLSLFTER
B36: SEQ ID NO: 302 KKLWTFFVKLSLFTER (peptide)
peptide: KKLWTFFVKLSLFTER
B37: SEQ ID NO: 325 KKLDTFVVKLSLFTER (peptide)
peptide: KKLDTFVVKLSLFTER
B38: SEQ ID NO: 281 VKLDTFFVKLSLFTER (peptide)
peptide: VKLDTFFVKLSLFTER
B39: SEQ ID NO: 306 KKLDNFFVKLSLFTER (peptide)
peptide: KKLDNFFVKLSLFTER
B40: SEQ ID NO: 320 KKLDTFLVKLSLFTER (peptide)
peptide: KKLDTFLVKLSLFTER
B41: SEQ ID NO: 322 KKLDTFQVKLSLFTER (peptide)
peptide: KKLDTFQVKLSLFTER
B42: SEQ ID NO: 316 KKLDTNFVKLSLFTER (peptide)
peptide: KKLDTNFVKLSLFTER
B43: SEQ ID NO: 295 KKSDTFFVKLSLFTER (peptide)
peptide: KKSDTFFVKLSLFTER
B44: SEQ ID NO: 292 KKNDTFFVKLSLFTER (peptide)
peptide: KKNDTFFVKLSLFTER
B45: SEQ ID NO: 301 KKLVTFFVKLSLFTER (peptide)
peptide: KKLVTFFVKLSLFTER
B46: SEQ ID NO: 314 KKLDTIFVKLSLFTER (peptide)
peptide: KKLDTIFVKLSLFTER
B47: SEQ ID NO: 307 KKLDPFFVKLSLFTER (peptide)
peptide: KKLDPFFVKLSLFTER

In the experiment the target is T1, His-tagged P3028 peptide (PGE73). Put plainly: PEPSCAN ELISA, peptide on card. (In an ELISA, binding on a coated surface is turned into a signal by an enzyme label.)
Protocol: After washing, the peroxidase substrate 2,2′-azine-di-3-ethylbenzthiazoline sulfonate (ABTS) and 2 μL of 3% H2O2 were added. The binding capacity of the mAb was measured as a color development at 405 nm (optical density, OD405). The color development was quantified with a charge-coupled device (CCD)—camera and an image processing system.
The OD405-values obtained by a CCD-camera was considered as raw data values (“rampo values,” “rampo units,” or “rampo scores”). […] First the CCD-camera made a picture of the card before peroxidase coloring and then again a picture after the peroxidase coloring. […] These values were copied into an excel file and labeled as a raw data file. One follow-up manipulation was allowed. Sometimes a well can contain an air-bubble resulting in a false-positive value. If manual inspection of the cards detect an air-bubble the value are set to 0 for that well.
Consider B1, for which the “RAMPO Score” value is 493.
To B2 belongs 417; to B3, 497.
To B4 belongs 425; to B5, 517; to B6, 535.
For B7, the “RAMPO Score” value is 700.
In the case of B8, the “RAMPO Score” value was 422.
Then B9, with 432.
Then B10, with 377; and B11, with 458.
Turning to B12, the “RAMPO Score” value was found to be 712.
Then B13, with 492; and B14, with 528; and B15, with 386.
On to B16, for which the “RAMPO Score” value was found to be 494.
With B17, the “RAMPO Score” value was 430.
To B18 belongs 481.
In the case of B19, the “RAMPO Score” value amounted to 449.
To B20 belongs 427; to B21, 475; to B22, 451.
Regarding B23, the “RAMPO Score” value was 467.
Then B24, with 393.
Take B25: the “RAMPO Score” value came out at 460.
To B26 belongs 575; to B27, 547; to B28, 454.
For the molecule B29, the “RAMPO Score” value came to 370.
To B30 belongs 563; to B31, 477; to B32, 473.
To B33 belongs 418; to B34, 430; to B35, 358.
Turning to B36, the “RAMPO Score” value was 443.
Then B37, with 527; and B38, with 442.
For B39, the “RAMPO Score” value was determined as 436.
Then B40, with 517; and B41, with 511; and B42, with 446.
As to B43, the “RAMPO Score” value came out at 393.
Then B44, with 374; and B45, with 424; and B46, with 466.
With B47, the “RAMPO Score” value was found to be 427.
